target: HLA-A*02:01 (Homo sapiens, UniProt P04439, D140Y/D185E/D98H/E176V/E277Q/G131W/G231S/I119V/I121R/I166T/I218V/L300P/L318F/N151K/N90K/P208A/P217A/Q86G/Q94H/R138H/R169H/T345S); experiment: MHC binding assay (UV-ligand exchange, ELISA, peptide exchange yield); conditions: binding of HLA-class I restricted peptides to HLA-A*02:01
Summary of the method: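 Exchange yield was quantified as stabilized β2m-containing complex: monomers diluted 100-fold bound to streptavidin-coated wells, probed with HRP-conjugated anti-β2m, read at 450 nm after TMB. Complexes had been generated by UV cleavage of a photolabile ligand and replacement with the candidate peptide.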

Substance	Peptide exchange (MHC class I binding score, peptide exchange yield)
561 (YLQLTQSEL; listed as Homo sapiens) [compound 561]	″+++″ (≥50% = +++)
562 (YLEELPEKLKL; listed as Homo sapiens) [compound 562]	″+++″ (≥50% = +++)
563 (WLLPYNGVTV; listed as Homo sapiens) [compound 563]	″+++″ (≥50% = +++)
564 (TVTNAVVTV; listed as Homo sapiens) [compound 564]	″+++″ (≥50% = +++)
565 (ALQETPTSV; listed as Homo sapiens) [compound 565]	″++″ (≥20% = ++)
566 (VIADGGIQNV; listed as Homo sapiens) [compound 566]	″++″ (≥20% = ++)
567 (SLLPLDDIVRV; listed as Homo sapiens) [compound 567]	″+++″ (≥50% = +++)
568 (TLYDIAHTPGV; listed as Homo sapiens) [compound 568]	″++++″ (≥75% = ++++)
569 (KLVDRTWTL; listed as Homo sapiens) [compound 569]	″+++″ (≥50% = +++)
570 (ALANQIPTV; listed as Homo sapiens) [compound 570]	″++″ (≥20% = ++)
571 (LLLTTIPQI; listed as Homo sapiens) [compound 571]	″+++″ (≥50% = +++)
572 (ALADLIEKELSV; listed as Homo sapiens) [compound 572]	″+++″ (≥50% = +++)
573 (ILVANAIVGV; listed as Homo sapiens) [compound 573]	″+++″ (≥50% = +++)
574 (YLLQEPPRTV; listed as Homo sapiens) [compound 574]	″++″ (≥20% = ++)
575 (YLISQVEGHQV; listed as Homo sapiens) [compound 575]	″+++″ (≥50% = +++)
576 (ILLNNSGQIKL; listed as Homo sapiens) [compound 576]	″++++″ (≥75% = ++++)
577 (VMFEDGVLMRL; listed as Homo sapiens) [compound 577]	″+++″ (≥50% = +++)

Substance	Peptide exchange (MHC class I binding score, peptide exchange yield)
578 (FLDPGGPMMKL; listed as Homo sapiens) [compound 578]	″+++″ (≥50% = +++)
579 (NLMEMVAQL; listed as Homo sapiens) [compound 579]	″++″ (≥20% = ++)
580 (LLMENAERV; listed as Homo sapiens) [compound 580]	″++″ (≥20% = ++)
582 (TLCDVILMV; listed as Homo sapiens) [compound 582]	″+++″ (≥50% = +++)
583 (ILANDGVLLAA; listed as Homo sapiens) [compound 583]	″+++″ (≥50% = +++)
584 (ALAEVAAMENV; listed as Homo sapiens) [compound 584]	″+++″ (≥50% = +++)
585 (ALWDLAADKQTL; listed as Homo sapiens) [compound 585]	″++++″ (≥75% = ++++)
586 (KLKPGDLVGV; listed as Homo sapiens) [compound 586]	″+++″ (≥50% = +++)
587 (VMNDRLYAI; listed as Homo sapiens) [compound 587]	″+++″ (≥50% = +++)
588 (SLLPLSHLV; listed as Homo sapiens) [compound 588]	″+++″ (≥50% = +++)
589 (KLYPQLPAEI; listed as Homo sapiens) [compound 589]	″+++″ (≥50% = +++)
590 (SLIEKLWQT; listed as Homo sapiens) [compound 590]	″++″ (≥20% = ++)
591 (SMAELDIKL; listed as Homo sapiens) [compound 591]	″+++″ (≥50% = +++)
592 (RLLSAAENFL; listed as Homo sapiens) [compound 592]	″+++″ (≥50% = +++)
593 (GLPRFGIEMV; listed as Homo sapiens) [compound 593]	″+++″ (≥50% = +++)
594 (IMLKGDNITL; listed as Homo sapiens) [compound 594]	″+++″ (≥50% = +++)

The next lines start with the values.

Peptide exchange (MHC class I binding score, peptide exchange yield)	Substance
″+++″ (≥50% = +++)	595 (VLLSIYPRV; listed as Homo sapiens) [compound 595]
″+++″ (≥50% = +++)	596 (ALLDQTKTLAESAL; listed as Homo sapiens) [compound 596]
″+++″ (≥50% = +++)	597 (KLLEGQVIQL; listed as Homo sapiens) [compound 597]
″+++″ (≥50% = +++)	598 (FLFPHSVLV; listed as Homo sapiens) [compound 598]
″+++″ (≥50% = +++)	599 (YLLNDASLISV; listed as Homo sapiens) [compound 599]
″+++″ (≥50% = +++)	600 (ALAAPDIVPAL; listed as Homo sapiens) [compound 600]
″+++″ (≥50% = +++)	601 (SAFPFPVTV; listed as Homo sapiens) [compound 601]
″++++″ (≥75% = ++++)	602 (YLLEQIKLIEV; listed as Homo sapiens) [compound 602]
″+++″ (≥50% = +++)	604 (SILDRDDIFV; listed as Homo sapiens) [compound 604]
″+++″ (≥50% = +++)	605 (KLYEAVPQL; listed as Homo sapiens) [compound 605]
″+++″ (≥50% = +++)	606 (ALWETEVYI; listed as Homo sapiens) [compound 606]
″+++″ (≥50% = +++)	607 (RLYSGISGLEL; listed as Homo sapiens) [compound 607]
″+++″ (≥50% = +++)	608 (SLLSVSHAL; listed as Homo sapiens) [compound 608]
″+++″ (≥50% = +++)	609 (ALWKQLLEL; listed as Homo sapiens) [compound 609]
″+++″ (≥50% = +++)	610 (LLAPTPYIIGV; listed as Homo sapiens) [compound 610]
″++++″ (≥75% = ++++)	611 (YLLDDGTLVV; listed as Homo sapiens) [compound 611]
″+++″ (≥50% = +++)	612 (YLYNEGLSV; listed as Homo sapiens) [compound 612]
″+++″ (≥50% = +++)	613 (RLLPPGAVVAV; listed as Homo sapiens) [compound 613]
″+++″ (≥50% = +++)	614 (LLLPDQPPYHL; listed as Homo sapiens) [compound 614]
″++″ (≥20% = ++)	615 (VLPPDTDPA; listed as Homo sapiens) [compound 615]
″+++″ (≥50% = +++)	616 (VLIDEVESL; listed as Homo sapiens) [compound 616]
″+++″ (≥50% = +++)	617 (ALMYESEKVGV; listed as Homo sapiens) [compound 617]
″+++″ (≥50% = +++)	618 (VLFDSESIGIYV; listed as Homo sapiens) [compound 618]
″+++″ (≥50% = +++)	619 (ALQDRVPLA; listed as Homo sapiens) [compound 619]
″++++″ (≥75% = ++++)	620 (KLLNKIYEA; listed as Homo sapiens) [compound 620]
″++++″ (≥75% = ++++)	621 (VLMDRLPSLL; listed as Homo sapiens) [compound 621]
″+++″ (≥50% = +++)	622 (RLLGEEVVRVLQA; listed as Homo sapiens) [compound 622]
″+++″ (≥50% = +++)	623 (YLVEDIQHI; listed as Homo sapiens) [compound 623]
″+++″ (≥50% = +++)	635 (SLDSTLHAV; listed as Homo sapiens) [compound 635]

Reference: US10227388B2, “Peptides and combination of peptides for use in immunotherapy against non-small cell lung cancer and other cancers” (immatics biotechnologies GmbH, priority 2015, dated 2019)
